Experimental findings from patent US20230329283A1 (priority 2021, published 2023) are described below.

This series has as its system rabbit red blood cells. The note with it: 37° C., 1 h, FIG. 6.

Where two headings read alike, the source gives them in different places.

On to “TrSub (EFGAGKAQCAAAWLQCASGGTLGCGGGAVACQNYRQFQCRAA; the amino acid sequence of the recombinant antimicrobial peptide TrSub)”, for which the “hemolytic activity (hemolysis rate)” value runs as follows: (2MIC concentration) “below 10%”; (MIC concentration) “below 10%”.
